# Assay: yeast display, Sf9 membrane polyspecificity reagent, FACS + sequencing; frameworks hold sequencing errors
# In short: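 Sorting gates, low and high (top ~1%), were placed on anti-HA fluorescence to track expression and on streptavidin fluorescence to track reagent binding. A clone's polyreactivity label is taken from the gate it came out of. The reagent was 10% biotinylated, detergent-solubilized Sf9 membrane, applied for 1 hour at 4 °C to galactose-induced yeast display cells.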
row,Sequence,polyreactivity (PSR sort gate)
1,QVQLVESGGGLVQAGGSLRLICAASGRIFDFYAMGWYRQAPGKDRELVAAITTGDSTYYADSVKGRFTISRDNAKNTVYLQMNSLKPEDTAVYDCAAVGHGGWDGDDYWGQGTQVTVSS,low polyreactivity
2,QVQLVESGGGLVQAGGSLRLICAASGRIFGSYVMGWYRQAPGKERELVAAISFSGDTTYYADSVKGRFTISRDNAKNTVYLQMNSLKPDDTAVYYCAAEFPQGYYAFKYDYWGQGTQVTVSS,high polyreactivity
3,QVQLVESGGGLVQAGGSLRLICAASGRIFKWYVMGWYRQAPGKERELVAAISRSGDSTNYADSVKGRFTISRDNAKNTVYLQMNSLKPEDTAVYYCAVGYRYLKWVDYWGQGTQVTVSS,high polyreactivity
4,QVQLVESGGGLVQAGGSLRLICAASGRIFLGYAMGWYRQAPGKERELVARITLIGGGTNYADSVKGRFTISRDNAKNTVYLQMNSLKPVDTAVYYCAAKSPLRPWWVGAVSGNYWGQGTQVTVSS,low polyreactivity
5,QVQLVESGGGLVQAGGSLRLICAASGRIFLWNAMGWYRQAPGKEREFVATISWNDAISYYADSVKGRFTISRDNAKNSVYLQMNSLKPEDTAVYYCNVDPKIVLSFGYDYWGQGTQVTVSS,low polyreactivity
6,QVQLVESGGGLVQAGGSLRLICAASGRIFPSYTMGWYRQAPGKERELVAGITKSGSSTYYADSVKGRFTISRDNAKNTVYLQMNSLKPEDTAVYYCAAVYGNPSYRYGYWGQGTQVTVSS,high polyreactivity
7,QVQLVESGGGLVQAGGSLRLICAASGRIFRGNAMGWYRQAPGKERELVATISSDGSTNYADSVKGRFTISRDNAKNSVYLQMNSLKPEDTAVYYCAKGFYTITPHGMDYWGQGTQVTVSS,low polyreactivity
8,QVQLVESGGGLVQAGGSLRLICAASGRIFRQNAMGWYRQEPGKERELVASISSGGNTYYADSVKGRFTISRDNAKNTVYLEMNSLKPEDTAVYYCAAAKQRYYRWWTTPGYDYWGQGTQVTVSS,low polyreactivity
9,QVQLVESGGGLVQAGGSLRLICAASGRIFWGNAMGWYRQAPGKERELVAAINSIGGTTYYADSVKGRFTISRDNAKNTVYLQMNSLKPEDTAVYYCAAQTFVYRKELLSRYEYWGQGTQVTVSS,high polyreactivity
10,QVQLVESGGGLVQAGGSLRLICAASGRIFWYYAMGWYRQAPGKERELVASITSGGRTKYADSVKGRFTISRDNAKNTVYLQMNSLKPEDTAVYYCAARLLIDYHADWWVAYDYWGQGTQVTVSS,low polyreactivity
11,QVQLVESGGGLVQAGGSLRLICAASGRIFYVYAMGWYRQAPGKERELVAAITSGGSTYYADSVKGRFTISRDNAKNTVYLQMNSLKPEDTAVYYCAAYNRGRFRPYRFEYWGQGTQVTVSS,high polyreactivity
12,QVQLVESGGGLVQAGGSLRLICAASGRIIRYYAMGWYRQAPGKERELVAITSSGGRTYYADSVKGRFSISRDNAKNTVYLQMNSLKPEDTAVYYCAVDSHCPGRGERFIRLDYWGQGTQVTVSS,low polyreactivity
13,QVQLVESGGGLVQAGGSLRLICAASGRILKYNAMGWYRQAPGKERELVAAISYRGGSTYYADSVKGRFTISRDTAKYTVYLLMNSLKPEDTAVYYCNAGGGILNGPLFDYWGQGTQVTVSS,low polyreactivity
14,QVQLVESGGGLVQAGGSLRLICAASGRILRYYAMGWYRQAPGKERELVASISRGGSTYYADSVKGRFTISRDNAKNTFYLQMNSLKPEDTAVYYCAKSVTGWRGLWYTPRNYYWGQGTQVTVSS,high polyreactivity
15,QVQLVESGGGLVQAGGSLRLICAASGRILWYYAMGWYRQAPGKERELVAAITSSGRTKYADSVKGRFTISRDNAKNTVYLQMNSLKPEDSAVYYCAARPSQWNYDYRRVYYWGQGTQVTVSS,high polyreactivity
16,QVQLVESGGGLVQAGGSLRLICAASGRNFSGNAMGWYTQAPRKERELVAAISTGGSTNYADSVKGRFTISRDNAKNTVYLHMNSLKQEDTAVYYCAADEWRFPSYAYYYWGQGTQVNVSS,low polyreactivity
17,QVQLVESGGGLVQAGGSLRLICAASGRTFFYYAMGWYRQAPGKEREFVAAISWSAGSTYYADSVKGRFTISRDNAKITVSLQMNSLKPKDTGVYYCAAARPSGGGFDYWGQGTQVTVSS,high polyreactivity
18,QVQLVESGGGLVQAGGSLRLICAASGRTFGGYAMASYRQAPGKERELVAAITYSGSSTYYADSVKGRFTISRDNAKNTVYLQMNSLKPEDTAVYYCAARGRQTWYNYWGQGTQVTVSS,high polyreactivity
19,QVQLVESGGGLVQAGGSLRLICAASGRTFNGYAMGWYRQAPGKERELVAAINASGGRTYYADSVKGRFTISRDNAKNTVYLQMNSLKPEDTAVYYCNARRYHWSVYYYDYWGQGTQVTVSS,high polyreactivity
20,QVQLVESGGGLVQAGGSLRLICAASGRTFQYYAMGWYRQARGKERELVAAISWSGGSTYYADSVKGRFTISRDNAKNTVYLQMNSLKAEDNAVYYFAASFRGQIVGYWGQGTQVTVSS,high polyreactivity
21,QVQLVESGGGLVQAGGSLRLICAASGRTFRFYAKGWYRQAPGKERELVAAITSGGSTTYAYSVKGRFTISRDNAKNTVYLQMNSLKPEDTAVYYCNADRARAYDYWGQGTQVTVSS,high polyreactivity
22,QVQLVESGGGLVQAGGSLRLICAASGRTFRFYTMGWYRQAPGKERELVAGIRQRGGTTYYADSVKGRFTISRDNAKNTVYLQMNSLKPEDTAVYYCAADVYYPFYSPGFDYWGQGTQVTVSS,high polyreactivity

row,Sequence,polyreactivity (PSR sort gate)
1,QVQLVESGGGLVQAGGSLRLICAASGRTFYLYAMGWYRQAPGKERELVASITKSGGSTYYADSVKGRFTISRDNAKNTVYLQMNSLKPEDTAVYYCATDGRWRLAGAFTGKRRTYDYWGQGTQVTVSS,low polyreactivity
2,QVQLVESGGGLVQAGGSLRLICAASGSIFADYAMGWYRQAPGKERELVAAITGGTSTYYADSVKGRFTISRDNAKNTVYLQMNSLKPEDTAVYYCAAYYYWEFSYYEYDYWGQGSQVTVSS,low polyreactivity
3,QVQLVESGGGLVQAGGSLRLICAASGSIFAYNAMGWYRQAPGKERELVAAITDSAGSTYYADSVKGRFTISRDNAKNTVYLQMYSLKPEDTAVYYGAKYTTRGVYRYWPKDMDYWGQGTQVTVSS,low polyreactivity
4,QVQLVESGGGLVQAGGSLRLICAASGSIFDPYAMGWYRQAPGKERELVAAITYSAARTYYADSVKGRFTISRDNAKNTVYLQMNSLKPEDTAVYYFNRVVRREAERYDYWGQGTQVTVSS,high polyreactivity
5,QVQLVESGGGLVQAGGSLRLICAASGSIFEYYAIRLYRQAPGTERELVADITYDGGNTYYADSLKGRFTISRDNAKNTVYLQMNSLKPEDTAVYYCATEYRYWQSDYSTYFPYDYWGQGTQVTVSS,low polyreactivity
6,QVQLVESGGGLVQAGGSLRLICAASGSIFFYNAMGWYRQAPGKERELVAAITTRGGSTYYADSVKGRFTISRDNAKNTVYLQMNSLKPEDTAVYYCARSSRGKLDYWGQGTQVTVSS,low polyreactivity
7,QVQLVESGGGLVQAGGSLRLICAASGSIFHRYTMGWYRQAPGKERELVAAINYSGSTTHYADSVKGRFTISRDNAKNTVYLQMNSLKPEDTAVYYCAAGSTRWYPTRVRYDYWGQGTQVTVSS,low polyreactivity
8,QVQLVESGGGLVQAGGSLRLICAASGSIFITYAMGWSRPAPGKERELVAAIRDSGDRTYYADSVKGRFTISRDNAKNTVYLQMNSLKPEDTAVYYCNARWQERLKYDYWGQGTQVTVSS,low polyreactivity
9,QVQLVESGGGLVQAGGSLRLICAASGSIFPHYAMGWYRPAPGKERELVAAISRGGSTNYADSVKGRFTISRDNAKNTVYLQMNSLKPEDTAVYYCNALRYYSRFMYAVAYRYDYWGQGTQVTVSS,high polyreactivity
10,QVQLVESGGGLVQAGGSLRLICAASGSIFTKYAMVWYRQAPGKERELVAAITWSGGRTYYADSVKGRYTISRDNAKNTVYLQMNSLKPEDTAVYYCAAELFRQGYYYWGQGTQVTVSS,high polyreactivity
11,QVQLVESGGGLVQAGGSLRLICAASGSIFVGNAMGWYRQAPGKERELVAAITSSGGRTYYADSVKGRFTISRDNAKNTVYLQMNSLKPEDTAVYYCNTSRTRRFSLWAYDYWGQGTQVTVSS,high polyreactivity
12,QVQLVESGGGLVQAGGSLRLICAASGSIFVIYAMGWYRQAPGKERELVAAITSGGNTTYADSVKGRFTISRDNAKNTVSLQMNSLKPEDTAVYYCSADYPWEYDYWGQGTQVTVSS,low polyreactivity
13,QVQLVESGGGLVQAGGSLRLICAASGSIFYFYAMGWYREAPGKERELVAAIRYNGGSTYYADSVKGRFTISRDNAKNTVYLQMNSLKPEDTAVYYCAAGGFHYVYYRGMYYWGQGTQVTVSS,high polyreactivity
14,QVQLVESGGGLVQAGGSLRLICAASGSIFYGYAMGWYRPAPGKERELVAAISYSGDRTYYADSVKGRFTISRDNAKNSVYLQMNSLKPEDTAVYYCAAQRRYGDDYWGQGTQVTVSS,high polyreactivity
15,QVQLVESGGGLVQAGGSLRLICAASGSIFYRYTMGWYRQAPGKERELVAAISSRGGSTYYADSVKGRFTISRDNAKNTVYLQMNSLKPEYTAVYYCAARFSYWAPSKGYGYWGQGTQVTVSS,high polyreactivity
16,QVQLVESGGGLVQAGGSLRLICAASGSKFSSYCMGWYRQATGQEMELVAAISKRGGSTYYADTVKGRFTISRDNAKNTVYLQMNSLKPEDTAVYYCAAAVSIQGYSTLFDYWGQGTQVTVSS,high polyreactivity
17,QVQLVESGGGLVQAGGSLRLICAASGSNFGSNAMGWYRQAPGKETEFVAVITWRVGVTYYADSVKGRFTISRDNAKNTVYLQMNSLKPEDTAVYYCNVDWKVYGAPDYRIAWKYDYWGQGTQVTVSS,low polyreactivity
18,QVQLVESGGGLVQAGGSLRLICAASGSTFDGYAMGWYRQAPGKERELVAAISKNGVRTYYADSVKGRFTISRDNAKNTVYLLMNSLKPEDTAVYYCAKDIIKYDYDYWGQGTQVTVSS,low polyreactivity
19,QVQLVESGGGLVQAGGSLRLICAASGSTFEYYAMGWYRPAPGKERELVAAINGIGGSTTYADSVKGRFTISRDNAKNTVYLQMNSLKPEDSAVYYCNADVARSKSQASAYDYWGQGTQVTVSS,low polyreactivity
20,QVQLVESGGGLVQAGGSLRLICAASGSTFFYNAMGWYRQAPGKEREFVAAIRWRGGSTYYADSVKGRFTISRDNAKNTVYLQMNSLKPEDTAVYYCAAVYYRWEYDYWGQGTQVTVSS,high polyreactivity
21,QVQLVESGGGLVQAGGSLRLICAASGSTFGAYAMGWYRQAPGKERELVAAISRSGGTTYYADSVKGRFTISRDNSKNTVYLQMNSLKPEDTEVYYCAADWLNSVPYNYWGQGTLVTVSS,low polyreactivity

# Source: the nanobody polyreactivity screen of Harvey et al. (2022)
